Source: publication PMC7946437, “Cardiolipin targets a dynamin-related protein to the nuclear membrane” (eLife, 2021)

Columns and labels:
Drp6 (His-drp6) = target: T1, Drp6 (His-drp6) (Tetrahymena thermophila, UniProt Q38KF5, I553A); test: Malachite Green phosphate release (BIOMOL Green); assay type: biochemical; settings: 1 mM GTP, 1 µM protein, 25 mM HEPES pH 7.5, 15 mM KCl, 2 mM MgCl2, 37°C
T1 construct: full length aa 1-710, N-terminal His tag (pRSETB), expressed in E. coli C41(DE3), Ni-NTA; higher-order oligomer (at least six monomers)

[1] = target: the molecule itself; test: SEC; Superdex 200 GL 10/300; 500 µl of protein (0.5 mg/ml) in buffer A, 0.5 ml/min, absorbance at 280 nm; self-assembly into higher order oligomers
[2] = substrate: Nc1nc2c(ncn2[C@@H]2O[C@H](COP(=O)(O)OP(=O)(O)OP(=O)(O)O)[C@@H](O)[C@H]2O)c(=O)[nH]1; test: Malachite Green phosphate release (BIOMOL Green); assay type: biochemical, Tetrahymena thermophila; settings: 25 mM HEPES pH 7.5, 15 mM KCl, 2 mM MgCl2, 37°C, 10 min, GTP 50-2000 µM

Molecule | Malachite Green phosphate release (BIOMOL Green) (Drp6 (His-drp6)) | stoichiometry N [1] [monomers] | Km [2] [µM] | binding result [1]
Nc1nc2c(ncn2[C@@H]2O[C@H](COP(=O)(O)OP(=O)(O)OP(=O)(O)O)[C@@H](O)[C@H]2O)c(=O)[nH]1 [GTP] | does not affect its activity as assessed by the rate of GTP hydrolysis | – | – | –
Tetrahymena dynamin-related protein 6 (Drp6), N-terminal histidine-tagged (natural protein, Tetrahymena thermophila, UniProt Q38KF5 1-710, looked up, Dynamin-related protein 6 (Drp6) of Tetrahymena thermophila; the text calls the His-tagged protein the full-length protein; pRSETB vector; also called His-drp6; WT; source: E. coli C41(DE3), purified (Ni-NTA agarose); not shown: histidine tag, N-terminal, kept) MTNTIVPANNFQNIKEVIKVVNKLRDFGIESDKIQLPKIVVIGVQSSGKSSLLEQIVQLDFLPRGTGVVTRCPLEIRLIEVTNQDSDFKPYAYFFEERQKIFHDFELVKKEIQKITNDFAGPGKKIVDKVITLTIYQAQCPTLTLIDLPGMTLNSVGDQKDIERVTQDMTKKYIIEKTTIILCVIPINQDLENSLALNLARSVDENGERTIGVLTMIDIMNPGTNCENVLKNRQIPLLHRYYGMKPRSQKDINENVSVQEAIQREQLYFTSHQIYSMYPEYTGTNALTNKLSTLLDSHIRTFLPSIHKKIKMTLSERIKERQQLGNEFPTEVTQQLYELTNIINTSLNLFKQAMTNYDASEIQNIGKIKVDERVGKSYADFLFDKYLLICKKISEEQVFKVKMKDLIKELGKFRVQVNGFLPFEVFESQIKQKINLYETEAIVILEQLKEHVRKVLNHCIDLFPFPNNKIKKIMQDILQNFVQTEYNFTSSHIKTAFYCYKDCICSKMIDIHETESKLKQNHVYLQNDNQQKKVLYEYISKNKSFMEWTVQEIMIKAENLCNVPITMSDLQNTYTKAEEKVQNTDEVLRYSIIYYKYMDNFRKQISDQIPQCIQSLFINSLCKNLMVKVFQAIQSKEYKEIIEKNLKEDEIIATKRAKVIQSIQKLAKANDRLERLIDQGQNCNHMLSTTYGDEENYIHESLEDSDGIDD | – | ≥ 6 | 180 | –
Drp6-I553M, N-terminal histidine-tagged (natural protein, Tetrahymena thermophila, UniProt Q38KF5 1-710, looked up, Dynamin-related protein 6 (Drp6) of Tetrahymena thermophila with I553M, made by site-directed mutagenesis of the His-drp6 construct; pRSETB vector; same limits as His-drp6 are likely (point mutant of that construct); also called His-drp6-I553M; source: E. coli C41(DE3), purified (Ni-NTA agarose); not shown: histidine tag, N-terminal, kept) MTNTIVPANNFQNIKEVIKVVNKLRDFGIESDKIQLPKIVVIGVQSSGKSSLLEQIVQLDFLPRGTGVVTRCPLEIRLIEVTNQDSDFKPYAYFFEERQKIFHDFELVKKEIQKITNDFAGPGKKIVDKVITLTIYQAQCPTLTLIDLPGMTLNSVGDQKDIERVTQDMTKKYIIEKTTIILCVIPINQDLENSLALNLARSVDENGERTIGVLTMIDIMNPGTNCENVLKNRQIPLLHRYYGMKPRSQKDINENVSVQEAIQREQLYFTSHQIYSMYPEYTGTNALTNKLSTLLDSHIRTFLPSIHKKIKMTLSERIKERQQLGNEFPTEVTQQLYELTNIINTSLNLFKQAMTNYDASEIQNIGKIKVDERVGKSYADFLFDKYLLICKKISEEQVFKVKMKDLIKELGKFRVQVNGFLPFEVFESQIKQKINLYETEAIVILEQLKEHVRKVLNHCIDLFPFPNNKIKKIMQDILQNFVQTEYNFTSSHIKTAFYCYKDCICSKMIDIHETESKLKQNHVYLQNDNQQKKVLYEYISKNKSFMEWTVQEMMIKAENLCNVPITMSDLQNTYTKAEEKVQNTDEVLRYSIIYYKYMDNFRKQISDQIPQCIQSLFINSLCKNLMVKVFQAIQSKEYKEIIEKNLKEDEIIATKRAKVIQSIQKLAKANDRLERLIDQGQNCNHMLSTTYGDEENYIHESLEDSDGIDD | – | – | 384 | binds
Drp6-I553A, N-terminal histidine-tagged (natural protein, Tetrahymena thermophila, UniProt Q38KF5 1-710, looked up, Dynamin-related protein 6 (Drp6) of Tetrahymena thermophila with I553A, made by site-directed mutagenesis of the His-drp6 construct; pRSETB vector; same limits as His-drp6 are likely (point mutant of that construct); also called His-drp6-I553A; I553A-Drp6; source: E. coli C41(DE3), purified (Ni-NTA agarose); not shown: histidine tag, N-terminal, kept) MTNTIVPANNFQNIKEVIKVVNKLRDFGIESDKIQLPKIVVIGVQSSGKSSLLEQIVQLDFLPRGTGVVTRCPLEIRLIEVTNQDSDFKPYAYFFEERQKIFHDFELVKKEIQKITNDFAGPGKKIVDKVITLTIYQAQCPTLTLIDLPGMTLNSVGDQKDIERVTQDMTKKYIIEKTTIILCVIPINQDLENSLALNLARSVDENGERTIGVLTMIDIMNPGTNCENVLKNRQIPLLHRYYGMKPRSQKDINENVSVQEAIQREQLYFTSHQIYSMYPEYTGTNALTNKLSTLLDSHIRTFLPSIHKKIKMTLSERIKERQQLGNEFPTEVTQQLYELTNIINTSLNLFKQAMTNYDASEIQNIGKIKVDERVGKSYADFLFDKYLLICKKISEEQVFKVKMKDLIKELGKFRVQVNGFLPFEVFESQIKQKINLYETEAIVILEQLKEHVRKVLNHCIDLFPFPNNKIKKIMQDILQNFVQTEYNFTSSHIKTAFYCYKDCICSKMIDIHETESKLKQNHVYLQNDNQQKKVLYEYISKNKSFMEWTVQEAMIKAENLCNVPITMSDLQNTYTKAEEKVQNTDEVLRYSIIYYKYMDNFRKQISDQIPQCIQSLFINSLCKNLMVKVFQAIQSKEYKEIIEKNLKEDEIIATKRAKVIQSIQKLAKANDRLERLIDQGQNCNHMLSTTYGDEENYIHESLEDSDGIDD | – | – | – | binds
